Experimental data: patent US20130040853A1, “Context Specific Genetic Screen Platform to Aid in Gene Discovery and Target Validation” (Dana-Farber Cancer Institute Inc., priority 2010, published 2013)

Legend:
[1] = tested on: HMEL-BRAF^V600E melanocytes; assay: In vivo functional genetic screen and secondary validation: kinase-transduced HMEL cells implanted in nude mice; parameters: species or system human; conditions: for Tumorigenicity in vivo: WT or mutant kinase expressed individually
From the text: A ‘cancer-kinase’ library was constructed containing sequence-verified ORFs in a lentiviral vector for 110 of the 120 kinases reported to sustain somatic driver mutations in diverse human cancers. This library was pooled and introduced into a human HMEL-BRAF^V600E melanocyte model system engineered with BRAF^V600E and TERT as well as p53DD and CDK4-R24C to inactivate the […] pathways, respectively. The HMEL-BRAF^V600E melanocyte profile, while representing the most common clinically-definable genetic profile in human melanoma, is insufficient to drive efficient melanoma formation following orthotopic transplantation in the skin (penetrance of 10% and latency of 26 weeks). In contrast, 40% of HMEL-BRAF^V600E melanocytes transduced with the cancer kinase pools developed tumors with an average latency of 13 weeks (range 10-18 weeks).
In vivo functional genetic screens: Lentivirus were prepared by co-transfecting 293T cells with individual vector backbones and standard virus packaging systems for subsequent collection of viral supernatants. Viral supernatants were then pooled randomly to generate 8 pools of high-titer lentiviral stocks. HMEL cells were transduced with either GFP control lentivirus or each representative lentiviral pool in the presence of 8 ug/ml polybrene (Company). Infected cells were expanded, mixed 1:1 with Matrigel (BD Bioscience) and then subcutaneously implanted in female nude animals (Taconic) at 1×10^6 cells per site on both flanks. Primary INK4A/ARF−/−, PTEN−/− murine astrocytes were transduced with either GFP control lentivirus or each representative lentiviral pool in the presence of 8 ug/ml polybrene (Company). Infected cells were expanded implanted into the brain parenchyma of female SCID mice (Charles River). Briefly, SCID mice were anesthetized and placed into a stereotactic apparatus equipped with a Z axis (Stoelting). A small hole was bored in the skull 0.5 mm anterior and 3.0 mm lateral to the bregma using a dental drill. Twenty thousand cells in Hank's Buffered Salt Solution were injected into the right caudate nucleus 2 mm below the surface of the brain using a 10-ul Hamilton syringe with an unbeveled 30 gauge needle. The scalp was closed using a 9-mm Autoclip Applier. Animals were followed daily for the development of subQ tumors or signs of neurological deficits. Animals were sacrifice, tumors were harvested, genomic DNA was prepared and kinases expressed in each tumor identified using PCR sequencing using plasmid specific CMV and V5 primers. Expression of each kinase was further validated by western blot analysis. Kinases expressed in each tumor were then enlisted into secondary validation screens in which stable HMEL or mouse astrocyte lines were generated expressing each kinase individually. Cells were again expanded and then implanted in female nude or SCID animals. All mice were housed and treated in accordance with protocols approved by the institutional care and use committees for animal research at the Dana-Farber Cancer Institute.

cJUN phosphorylation = assay: JNK Kinase Assay (WT and mutant kinases immunoprecipitated from HMEL cells); type: biochemical, human; conditions: as reported by level of cJUN phosphorylation; for MAP2K4/7 first incubated with inactive JNK2

B1: JNK1 P.G171S: JNK1 somatic mutant, observed in renal clear cell carcinoma (protein, UniProt P45983 1-427, looked up, variant G171S)
Mitogen-activated protein …: MSRSKRDNNFYSVEIGDSTFTVLKRYQNLKPIGSGAQGIVCAAYDAILERNVAIKKLSRPFQNQTHAKRAYRELVLMKCVNHKNIIGLLNVFTPQKSLEEFQDVYIVMELMDANLCQVIQMELDHERMSYLLYQMLCGIKHLHSAGIIHRDLKPSNIVVKSDCTLKILDFSLARTAGTSFMMTPYVVTRYYRAPEVILGMGYKENVDLWSVGCIMGEMVCHKILFPGRDYIDQWNKVIEQLGTPCPEFMKKLQPTVRTYVENRPKYAGYSFEKLFPDVLFPADSEHNKLKASQARDLLSKMLVIDASKRISVDEALQHPYINVWYDPSEAEAPPPKIPDKQLDEREHTIEEWKELIYKEVMDLEERTKNGVIRGQPSPLGAAVINGSQHPSSSSSVNDVSSMSTDPTLASDTDSSLEAAAGPLGCCR
[1]
  Tumorigenicity in vivo: YES
cJUN phosphorylation
  Kinase Activity: 1X

B2: MAP2K7 WT: wild type MAP2K7 kinase ORF expressed in HMEL cells (protein, UniProt O14733 2-419, looked up)
Dual specificity …: AASSLEQKLSRLEAKLKQENREARRRIDLNLDISPQRPRPTLQLPLANDGGSRSPSSESSPQHPTPPARPRHMLGLPSTLFTPRSMESIEIDQKLQEIMKQTGYLTIGGQRYQAEINDLENLGEMGSGTCGQVWKMRFRKTGHVIAVKQMRRSGNKEENKRILMDLDVVLKSHDCPYIVQCFGTFITNTDVFIAMELMGTCAEKLKKRMQGPIPERILGKMTVAIVKALYYLKEKHGVIHRDVKPSNILLDERGQIKLCDFGISGRLVDSKAKTRSAGCAAYMAPERIDPPDPTKPDYDIRADVWSLGISLVELATGQFPYKNCKTDFEVLTKVLQEEPPLLPGHMGFSGDFQSFVKDCLTKDHRKRPKYNKLLEHSFIKRYETLEVDVASWFKDVMAKTESPRTSGVLSQPHLPFFR
[1]; kinase transduced individually
  tumor generation individually in secondary HMEL screens: did not generate tumors
cJUN phosphorylation
  Kinase Activity: 1X

B3: MAP2K4 p.Q142L: MAP2K4 somatic driver mutant, observed in colorectal adenocarcinoma (protein, UniProt P45985 2-399, looked up, variant Q142L)
Dual specificity …: AAPSPSGGGGSGGGSGSGTPGPVGSPAPGHPAVSSMQGKRKALKLNFANPPFKSTARFTLNPNPTGVQNPHIERLRTHSIESSGKLKISPEQHWDFTAEDLKDLGEIGRGAYGSVNKMVHKPSGQIMAVKRIRSTVDEKELKQLLMDLDVVMRSSDCPYIVQFYGALFREGDCWICMELMSTSFDKFYKYVYSVLDDVIPEEILGKITLATVKALNHLKENLKIIHRDIKPSNILLDRSGNIKLCDFGISGQLVDSIAKTRDAGCRPYMAPERIDPSASRQGYDVRSDVWSLGITLYELATGRFPYPKWNSVFDQLTQVVKGDPPQLSNSEEREFSPSFINFVNLCLTKDESKRPKYKELLKHPFILMYEERAVEVACYVCKILDQMPATPSSPMYVD
[1]
  Tumorigenicity in vivo: YES
cJUN phosphorylation
  Kinase Activity: 4X

B4: MAP2K4 p.R154W: MAP2K4 somatic driver mutant, observed in colorectal adenocarcinoma (protein, UniProt P45985 2-399, looked up, variant R154W)
Dual specificity …: AAPSPSGGGGSGGGSGSGTPGPVGSPAPGHPAVSSMQGKRKALKLNFANPPFKSTARFTLNPNPTGVQNPHIERLRTHSIESSGKLKISPEQHWDFTAEDLKDLGEIGRGAYGSVNKMVHKPSGQIMAVKRIRSTVDEKEQKQLLMDLDVVMWSSDCPYIVQFYGALFREGDCWICMELMSTSFDKFYKYVYSVLDDVIPEEILGKITLATVKALNHLKENLKIIHRDIKPSNILLDRSGNIKLCDFGISGQLVDSIAKTRDAGCRPYMAPERIDPSASRQGYDVRSDVWSLGITLYELATGRFPYPKWNSVFDQLTQVVKGDPPQLSNSEEREFSPSFINFVNLCLTKDESKRPKYKELLKHPFILMYEERAVEVACYVCKILDQMPATPSSPMYVD
[1]
  Tumorigenicity in vivo: YES
cJUN phosphorylation
  Kinase Activity: 3X
